# Assay results reported in the supplement of paper PMC10567573.
# B1: SNAP91 (parent)
# chain: FAQPMMRPPFGAAAVPGTQLSPSP
# B2: TNXB (parent)
# chain: LLQRELMVPGTRHSAVLRDLRSGT
# Variants of: B1
# Experiment: protein stability index of a GFP-peptide fusion (GPS, HEK-293T) (PSI 1-6); higher = more stable
# Conditions: c terminus: a fixed tail appended
# 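Further: lentivirally expressed fusions sorted by FACS into six bins by GFP to DsRed ratio, PSI derived from sequencing read proportions per bin multiplied by bin number.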
row,Variant,protein stability index
1,FAQPMMRPPFGAAAVPGTQRSPSP [L20R],3.51
2,FAQPMMRPPFGAAAVPGTQTSPSP [L20T],3.56
3,FAQPMMRPPFGAAAVPGTQWSPSP [L20W],2.73
4,FAQPMMRPPFGAAAVPGTQVSPSP [L20V],2.85
5,FAQPMMRPPFGAAAVPGTQSSPSP [L20S],3.33
6,FAQPMMRPPFGAAAVPGTQYSPSP [L20Y],3.08
7,FAQPMMRPPFGAAAVPGTQLCPSP [S21C],2.86
8,FAQPMMRPPFGAAAVPGTQLVPSP [S21V],3.44
9,FAQPMMRPPFGAAAVPGTQLMPSP [S21M],2.85
10,FAQPMMRPPFGAAAVPGTQLIPSP [S21I],3.48
11,FAQPMMRPPFGAAAVPGTQLKPSP [S21K],2.95
12,FAQPMMRPPFGAAAVPGTQLNPSP [S21N],3.03
13,FAQPMMRPPFGAAAVPGTQLQPSP [S21Q],3.29
14,FAQPMMRPPFGAAAVPGTQLGPSP [S21G],3.28
15,FAQPMMRPPFGAAAVPGTQLRPSP [S21R],3.12
16,FAQPMMRPPFGAAAVPGTQLEPSP [S21E],2.98
17,FAQPMMRPPFGAAAVPGTQLDPSP [S21D],2.63
18,FAQPMMRPPFGAAAVPGTQLYPSP [S21Y],3
19,FAQPMMRPPFGAAAVPGTQLFPSP [S21F],3.01
20,FAQPMMRPPFGAAAVPGTQLLPSP [S21L],2.76
21,FAQPMMRPPFGAAAVPGTQLHPSP [S21H],3.16

row,Variant,protein stability index
1,FAQPMMRPPFGAAAVPGTQLTPSP [S21T],3.06
2,FAQPMMRPPFGAAAVPGTQLWPSP [S21W],2.89
3,FAQPMMRPPFGAAAVPGTQLPPSP [S21P],3.11
4,FAQPMMRPPFGAAAVPGTQLAPSP [S21A],3.49
5,FAQPMMRPPFGAAAVPGTQLSPRP [S23R],4.14
6,FAQPMMRPPFGAAAVPGTQLSPTP [S23T],3.27
7,FAQPMMRPPFGAAAVPGTQLSPDP [S23D],3.54
8,FAQPMMRPPFGAAAVPGTQLSPAP [S23A],3.4
9,FAQPMMRPPFGAAAVPGTQLSPWP [S23W],2.03
10,FAQPMMRPPFGAAAVPGTQLSPNP [S23N],3.29
11,FAQPMMRPPFGAAAVPGTQLSPQP [S23Q],3
12,FAQPMMRPPFGAAAVPGTQLSPYP [S23Y],2.52
13,FAQPMMRPPFGAAAVPGTQLSPCP [S23C],3.25
14,FAQPMMRPPFGAAAVPGTQLSPHP [S23H],2.96
15,FAQPMMRPPFGAAAVPGTQLSPMP [S23M],2.36
16,FAQPMMRPPFGAAAVPGTQLSPEP [S23E],3.32
17,FAQPMMRPPFGAAAVPGTQLSPGP [S23G],3.05
18,FAQPMMRPPFGAAAVPGTQLSPLP [S23L],2.1
19,FAQPMMRPPFGAAAVPGTQLSPFP [S23F],2.75
20,FAQPMMRPPFGAAAVPGTQLSPVP [S23V],3.19
21,FAQPMMRPPFGAAAVPGTQLSPKP [S23K],3.21

row,Variant,protein stability index
1,FAQPMMRPPFGAAAVPGTQLSPIP [S23I],2.73
2,FAQPMMRPPFGAAAVPGTQLSCSP [P22C],2.67
3,FAQPMMRPPFGAAAVPGTQLSESP [P22E],2.71
4,FAQPMMRPPFGAAAVPGTQLSLSP [P22L],3.22
5,FAQPMMRPPFGAAAVPGTQLSNSP [P22N],3.58
6,FAQPMMRPPFGAAAVPGTQLSISP [P22I],2.75
7,FAQPMMRPPFGAAAVPGTQLSYSP [P22Y],3.49
8,FAQPMMRPPFGAAAVPGTQLSWSP [P22W],2.65
9,FAQPMMRPPFGAAAVPGTQLSVSP [P22V],3.08
10,FAQPMMRPPFGAAAVPGTQLSFSP [P22F],2.82
11,FAQPMMRPPFGAAAVPGTQLSASP [P22A],3.28
12,FAQPMMRPPFGAAAVPGTQLSQSP [P22Q],3.57
13,FAQPMMRPPFGAAAVPGTQLSDSP [P22D],2.97
14,FAQPMMRPPFGAAAVPGTQLSGSP [P22G],3.56
15,FAQPMMRPPFGAAAVPGTQLSTSP [P22T],3.3
16,FAQPMMRPPFGAAAVPGTQLSKSP [P22K],3
17,FAQPMMRPPFGAAAVPGTQLSMSP [P22M],2.86
18,FAQPMMRPPFGAAAVPGTQLSHSP [P22H],3.14
19,FAQPMMRPPFGAAAVPGTQLSRSP [P22R],3.32
20,FAQPMMRPPFGAAAVPGTQLSSSP [P22S],2.96
21,FAQPMMRPPFGAAAVPGTQLSPSS [P24S],3.1

row,Variant,protein stability index
1,FAQPMMRPPFGAAAVPGTQLSPSR [P24R],2.87
2,FAQPMMRPPFGAAAVPGTQLSPSK [P24K],3.83
3,FAQPMMRPPFGAAAVPGTQLSPSN [P24N],2.58
4,FAQPMMRPPFGAAAVPGTQLSPSM [P24M],3.23
5,FAQPMMRPPFGAAAVPGTQLSPSI [P24I],3.2
6,FAQPMMRPPFGAAAVPGTQLSPSE [P24E],3.45
7,FAQPMMRPPFGAAAVPGTQLSPST [P24T],3.25
8,FAQPMMRPPFGAAAVPGTQLSPSC [P24C],2.93
9,FAQPMMRPPFGAAAVPGTQLSPSQ [P24Q],3.32
10,FAQPMMRPPFGAAAVPGTQLSPSW [P24W],2.77
11,FAQPMMRPPFGAAAVPGTQLSPSY [P24Y],2.86
12,FAQPMMRPPFGAAAVPGTQLSPSL [P24L],2.35
13,FAQPMMRPPFGAAAVPGTQLSPSA [P24A],3.11
14,FAQPMMRPPFGAAAVPGTQLSPSD [P24D],3.4
15,FAQPMMRPPFGAAAVPGTQLSPSH [P24H],2.96
16,FAQPMMRPPFGAAAVPGTQLSPSG [P24G],3.22
17,FAQPMMRPPFGAAAVPGTQLSPSV [P24V],2.51
18,FAQPMMRPPFGAAAVPGTQLSPSF [P24F],2.65

# Variants of: B2
# Experiment: as above
# Conditions: c terminus: a fixed tail appended
row,Variant,protein stability index
1,GLQRELMVPGTRHSAVLRDLRSGT [L1G],2.89
2,PLQRELMVPGTRHSAVLRDLRSGT [L1P],2.53
3,ALQRELMVPGTRHSAVLRDLRSGT [L1A],2.85
4,DLQRELMVPGTRHSAVLRDLRSGT [L1D],2.71
5,ELQRELMVPGTRHSAVLRDLRSGT [L1E],3.08
6,NLQRELMVPGTRHSAVLRDLRSGT [L1N],3.54
7,KLQRELMVPGTRHSAVLRDLRSGT [L1K],2.87
8,FLQRELMVPGTRHSAVLRDLRSGT [L1F],2.41
9,MLQRELMVPGTRHSAVLRDLRSGT [L1M],2.73
10,ILQRELMVPGTRHSAVLRDLRSGT [L1I],2.47
11,HLQRELMVPGTRHSAVLRDLRSGT [L1H],2.98
12,CLQRELMVPGTRHSAVLRDLRSGT [L1C],2.38
13,QLQRELMVPGTRHSAVLRDLRSGT [L1Q],3.22
